Source: patent US20240026407A1, “MODIFICATION OF SAPONINS” (GLAXOSMITHKLINE BIOLOGICALS SA, priority 2020, published 2024)

B1: 1077 (protein, listed as Bacillus sp.)
chain: MAGRNWNASWIWGGQEESPRNEWRCFRGSFDAPASVEGPAMLHITADSRYVLFVNGEQVGRGPVRSWPKEQFYDSYDIGGQLRPGVRNTIAVLVLHFGVSNFYYLRGRGGLIAEIEADGRTLAATDAAWRTERLGGQRSNSPRMACQQGFGEVIDARELAEDWALPAFDDGGWAQARSIGPAGTAPWTSLVPRDIPFLTEEKLYPASIQSLSRVKAPKYAAALDLRNQMVPESVNHANPVSYCGYVATILTLETSGVVTLGFPTGVRGSGVWVDGVLQTEWTGVQPERYYSLNLAAGEHLVLVDITSSDHGGSSHFAIDSEAAFTLRSPAGDNGVPLATIGTFDQSEYIDHRPGRRMQTDHPDYRALPEAAPTAAALEAFASWVKPFEPSLYTEENVFGSNVWRTLAERRAVPRSVLNAILPVPEPGVLPVFEDGDCELVIDLGAERSGFIGFELEAPAGTIIDAYGVEYMREGYTQHTYGLDNTFRYICREGRQSYVSPVRRGFRYLFLTVRGNSAPVKLHEIYIRQSTYPVAEQGSFRCSDALLNATWEISRHTTRLCMEDTFVDCPSYEQVFWVGDSRNEALVNYYVFGETEIVERCLNLVPGSADETPLYLDQVPSAWSSVIPNWTFFWILACREYAAHTGNEAFAARIWPAVKHTLTHYLEHIDDSGLLNMAGWNLLDWAPIDQPNEGIVTHQNLFLVKALRDSRALAAAAGATEEADAFAARADLLAETINAVLWDEEKRAYIDCIHADGRRSDVYSMQTQVVAYLCGVAQGEREAVIEGYLSSPPPAFVQIGSPFMSFFYYEALEKAGRQTLMLDDIRRNYGQMLRYDATTCWEMYPNFAENRSNPDMLTRSHCHAWSAAPGYFLGSSILGVKRGADGWRTVDIAPQPCDLTWAEGVVPLPQGGHIAVSWEFVSAGKLKLRIEAPEDIEVNVTLPEGIEGEVTQVKYMS
B2: 1082 (protein, listed as Streptomyces avermitilis)
chain: MSALRVTSPSVEYVQRPLGLDAAHPRLSWPMASAAPGRRQSAYQVRVASSAAGLSHPDVWDSGKVVSDDSVLVPYAGPPLKPRTRYFWSVRVWDADGGASEWSAPSWWETGLMGASQWSAKWISAPAPLTEAPSLEGSSWIWFPEGEPANSAPAATRWFRRTVDLPDDITGATLAISADNVYAVSVDGAEVARTDLEADNEGWRRPAVIDVLDHVHSGNNTLAVSASNASVGPAGWICVLVLTTASGEKKIFSDASWKSTDHEPADGWREPDFDDSGWPAAKVAAAWGAGPWGRVAPVASAANQLRHEFRLPHKKVSRARLYATALGLYEAHLNGRRVGRDQLAPGWTDYRKRVQYQTYDVTSSVRPGANALAAYVAPGWYAGNVGMFGPHQYGERPALLAQLEVEYADGTSERITSGPDWRAASGPIVSADLLSGETYDARKETAGWTSPGFDDRAWLAVRGADNDVPEQIVAQVDGPVRIAKELPARKVTEPKPGVFVLDLGQNMVGSVRLRVSGDAGTTVRLRHAEVLNPDGTIYTANLRSAAATDTYTLKGQGEETYEPRFTFHGFRYVEVTGFPGKPSTTSVTGRVMHTSAPFTFEFETNVPMLNKLHSNITWGQRGNFLSVPTDTPARDERLGWTGDINVFAPTAAYTMESARFLTKWLVDLRDAQTSDGAFTDVAPAVGNLGNGVAGWGDAGVTVPWALYQAYGDRQVLADALPSVHAWLRYLEKHSDGLLRPADGYGDWLNVSDETPKDVIATAYFAHSADLAARMATELGKDAAPYTDLFTRIRKAFQTAYVASDGKVKGDTQSAYVLTLSMNLVPDALRKAAADRLVALIEAKDWHLSTGFLGTPRLLPVLTDTGHTDVAYRLLHQRTFPSWGYPIDKGSTTMWERWDSIQPDGGFQTPEMNSFNHYAYGSVGEWMYANIAGIAPGRAGYRQVVIRPRPGGEVTSARATFASLHGPVSTRWQQRSGGFVLTCSVPPNTTAEVWIPADHPDRVQHTHGTFVRAEDGCAVFEVGSGSHRFTV
B3: 993 (protein)
chain: MKKLLLCLCFLAIGFLSNAKIKPTQLTCEYLKNPSVVDVLQPRLAWINVADAGERGQEQTAYQIRVASLKEKLENADLWDSGKVKDDASIRVKYDGEKLVSRQDCWWQVRVWDKNNEVSEWSEPAYWHMGLLNENDWTANWIGVPWQGEETLPKPASPAATLPGELPPPAPLFRKEFNATKQVEKAVAYVTGLGYFELYLNGEKVGDDVLVPNQTNYGKRPALTQQYIPLDDNFKEYKVMYLAYDISDQLVSGANTFGAILGNGFYNPSKHWALGYGTPRLLVQVHVAYTDGTEELIVSDESWKVSKSPILMDMVYYGEHYDARLEQDGWCSAGFDDSAWENAILRKAPEGKLVAHTAHPDKVYETLQPVRIEKMYNGNYKVDFGEEISGWVRLKNVEGPEGHKVKINYLSNNYSGDNSYIFKGEGKENYAARFNWFVFREVEIENWPGVLAPENICAEAINTYIEESAHFETSNPLFNQVNKIWKRSQTDNMHGGIASDCPHRERSPYTGDGQVACVTVMHNFDAQNFYYKWIHDMIGAQNVKTGYVPNGAPWQPGCGGGVAWGAAINIIPWEFYVHYGAVDMLEEAYEPMKEYVRYMQTWVNNEGIMNSQRVGLDGNVLQWFNLGEWVTPGDLPPDSLVHTFYFWRCADITAKTAEILGKRKEAKRNRELAETTQSAFHKCFFDAEKGTYGNAGANIFALKMGVPENEYQRVINALKANIKKNKGHLDTGIFGTQFFFEVLSENGLHELAYEAMNKKEEPGYGRWLTLGATTSWENWNTDGSHNHPMFGGGLVWLYRKLAGMQADEKNPGYRHIIFHPQPIKELEFAEYFNKTPYGKAGIKWQQTEGKLSVGVTVPVGCTATVILPGGHFLADGKAMEKVAEVQLVSQKEDELIIKVGAGNYQFSN
modifications: Draconibacterium orientale
B4: 1076 (protein, listed as Kribbella flavida)
chain: MSFRTRFGCLLAAVLLLTPLVPATGSPPATRETLQVRNLKTNNLTNPLGVPGTPPRLSWQLDGDRRGITQSRYQIRVASTPAKTARPDIWDSGVVRSTDSIEVPYGGPALTTGTAYHWTVRVWDDAGKASAWSPVATFETGPLRPGDWQGDWIGADNQPGPEWTDTTIDADVTLVKDALGVFFRGRGGVGYMWQLNQLTPDKPLLRPHVRQPGGGYVLLGEIPLAAGTDLKQRHHLRITVAGRTITTWLDGVQVDSRERSDHNAPGVVGFRTDGAEHGVVHSLKVTNVAGEVLVDTAFPAGDQTFPDGTVRAEGGLQVKGTTDLWLPGKPIPVFRKAISLPKAKKVASARIDAAAQGIYELTVNGRKAGDHQLAPGWTDYARRIQSQTYDVTKLLKSGANTLGAEVAPGWFTGNLAMFGPNKYGTDTAFIAQLRVTYTDGTADVFATDSSWQTAPGAVRVADLLNGESYDARRTASEWVPAQVRPSATAKIVPQTDQPVRVTQELKARAIPSPTPGAYLYDLGQNMVGIARLTLHGRPGQTVKIRYGEVLNPDGTLYTDNLRSAKATDHYTFATSRPETYQPRFTFHGFRYVEVSGLPTAPPASAIVGVVLGTDAEQVNEFRTNSPLVNQLHSNIVWGQRGNFLSIPTDTPARDERMGWTGDINVFARTAVYNLDSQAFLTKWLQDLRDTQRADGAYASVAPTVPNSFDGGMGNAGWADAGVNVPWTLWQAYGDTSVIRQHYASMTRYVDYLVASSNGLIRGGGDYGDWLNLDDPTPGELIGTSFVAKGARQLSQMAAAIGHTADAAKYQRVYEDVRAAFAARFVAADGKVGSDSQTGYILAFTSDLVPADRIAAAGEHFAATILRRDTHLSTGFLGVDGLLPVLTKIGRTDLAYRLLQNTSYPSWGYEIGKGATTIWERWNSINPDGTFNDVGMNSFNHYAYGAVGEWMYRTLAGLSAAEPGYRKALIAPTPGDGIDTAQLRHRTPYGEVGSQWRRLADGRFTLEVEVPANTTATVRLPAAEARQITESGRALSRAVGVSGVVDEGTTVALTVGSGNYRFAVRP

Experiment: Experiment 6-2: screening of rhamnosidases for derhamnosylation of saponins in treated bark extract (25%), relative % of Left, Middle and Right Peak by UV HPLC
Assay type: biochemical, Quillaja saponaria
Conditions: TBE 25%, pH 7.4, 19.5 h, mainly QS-17 family, negative control 24%

Row | Molecule | Left Peak
1 | B1 | 23%
2 | B2 | 19%
3 | B3 | 18%
4 | B4 | 22%

Same assay, conditions: TBE 25%, pH 7.4, 19.5 h, mainly QS-18 and desglucosyl-QS-17 family, negative control 50%

Row | Molecule | Middle Peak
5 | B1 | 51%
6 | B2 | 55%
7 | B3 | 56%
8 | B4 | 52%

Same assay, conditions: TBE 25%, pH 7.4, 19.5 h, mainly QS-21 family, negative control 26%

Row | Molecule | Right Peak
9 | B1 | 26%
10 | B2 | 26%
11 | B3 | 27%
12 | B4 | 26%

Experiment: Experiment 6-1: screening of rhamnosidases for derhamnosylation of saponins in treated bark extract (2%), QS-17 2296 to QS-18 2150 (PAR %)
Assay type: biochemical, Quillaja saponaria
Conditions: TBE 2%, pH 7.5, 30 degC, 18 h; TIC peak area ratio percent of rhamnosylated starting saponin to derhamnosylated product, LCMS/MS; negative controls 4.876, 5.225

Row | Molecule | QS-17 (PAR %)
13 | B1 | 3.964%
14 | B2 | 3.122%
15 | B3 | 3.836%
16 | B4 | 3.766%

Experiment: Experiment 6-3: screening of rhamnosidases for derhamnosylation of saponins in crude bark extract (80%), relative % of Left, Middle and Right Peak by UV HPLC
Assay type: biochemical, Quillaja saponaria
Conditions: CBE 80%, pH 7.4, 30 degC, 19.5 h, mainly QS-17 family, negative control 27%
Summary of the method: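 Clarified lysates of expressed rhamnosidase variants were incubated with crude bark extract (pH 7.4, final 80%) at 30 degC with shaking for 19.5 h, then quenched with MeCN+2% AcOH. UV HPLC gave relative % of Left (QS-17), Middle (QS-18/desglucosyl-QS-17) and Right (QS-21) peaks.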

Row | Molecule | Left Peak
17 | B1 | 26%
18 | B2 | 26%
19 | B3 | 25%
20 | B4 | 26%

Same assay, conditions: CBE 80%, pH 7.4, 30 degC, 19.5 h, mainly QS-18 and desglucosyl-QS-17 family, negative control 48%

Row | Molecule | Middle Peak
21 | B1 | 48%
22 | B2 | 47%
23 | B3 | 49%
24 | B4 | 48%

Same assay, conditions: CBE 80%, pH 7.4, 30 degC, 19.5 h, mainly QS-21 family, negative control 26%

Row | Molecule | Right Peak
25 | B1 | 27%
26 | B2 | 27%
27 | B3 | 26%
28 | B4 | 27%

Experiment: Experiment 6-1: specificity of rhamnosidases towards other rhamnose residues (C3 saccharide rhamnose, C28 saccharide rhamnose)
Assay type: biochemical, Quillaja saponaria
Conditions: TBE 2%, pH 7.5, 30 degC, 18 h; LCMS/MS; negative controls 0.18, 0.17

Row | Molecule | ratio PP/QS-21
29 | B1 | 0.18
30 | B2 | 0.21
31 | B3 | 0.18
32 | B4 | 0.19

Experiment: Experiment 6-1: screening of rhamnosidases for derhamnosylation of saponins in treated bark extract (2%), desglucosyl-QS-17 2134 to QS-21 1988 (PAR %)
Assay type: biochemical, Quillaja saponaria
Conditions: TBE 2%, pH 7.5, 30 degC, 18 h; TIC peak area ratio percent, LCMS/MS; negative controls 2.719, 2.158

Row | Molecule | Peak75 (PAR %)
33 | B1 | 2.138%
34 | B2 | 1.614%
35 | B3 | 2.211%
36 | B4 | 1.961%

Experiment: Experiment 6-1: screening of rhamnosidases for derhamnosylation of saponins in treated bark extract (2%), QS-17 2310 to QS-18 2164 (PAR %)
Assay type: biochemical, Quillaja saponaria
Conditions: TBE 2%, pH 7.5, 30 degC, 18 h; TIC peak area ratio percent, LCMS/MS; negative controls 3.061, 2.429

Row | Molecule | Peak57 (PAR %)
37 | B1 | 2.532%
38 | B2 | 0.000%
39 | B3 | 1.129%
40 | B4 | 1.295%
